Where “and” joins values, the source holds several entries; their conditions need not be identical. Equal entries are not always repeated. Where two headings read alike, the source gives them in different places. Numbered stars: 1 amine (or outer) side, 2 acyl side, 3 side chain; on linkers, the order of the positions; unused ones are H or OH. Square brackets hold non-standard residues; d marks the D form. Side chains are listed from the residue outwards. Ends that are not written are not given here. * marks the point of attachment. C18 diacid = O=C(O)CCCCCCCCCCCCCCCCC(=O)*; γGlu = O=C(O)[C@H](CCC(=O)[*:2])N[*:1]; Hexadienoyl(2E,4E) = C/C=C/C=C/C(=O)*; NMeI = CC[C@H](C)[C@H](NC)C(=O)O; NMeL = CN[C@@H](CC(C)C)C(=O)O; Fumaroyl = O=C(O)/C=C/C(=O)*; Suc = O=C(CCC(=O)[*:2])[*:1]; AEEA = NCCOCCOCC(=O)O
Target: T1, human ETB receptor (Homo sapiens, UniProt P24530)
T1 construct: expressed in transfected cells; host or cells: 293T-17 cells, transient transfection
T1 sequence (P24530 27-442): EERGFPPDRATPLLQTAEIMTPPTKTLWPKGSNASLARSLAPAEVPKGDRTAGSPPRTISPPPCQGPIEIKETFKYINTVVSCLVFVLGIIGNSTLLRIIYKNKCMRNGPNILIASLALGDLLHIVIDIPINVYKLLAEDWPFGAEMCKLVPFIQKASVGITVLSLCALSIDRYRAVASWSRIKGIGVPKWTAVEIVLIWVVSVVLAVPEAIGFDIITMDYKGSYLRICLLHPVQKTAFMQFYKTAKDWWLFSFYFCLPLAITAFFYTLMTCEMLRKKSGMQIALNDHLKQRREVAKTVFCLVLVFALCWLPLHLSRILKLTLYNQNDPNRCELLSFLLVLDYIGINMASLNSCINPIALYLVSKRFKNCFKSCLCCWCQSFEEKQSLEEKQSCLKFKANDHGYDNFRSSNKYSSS
Experiment: Screening of polypeptides for activity on human ETB receptor (IP-One Gq kit, % of positive control IRL1620)
Format: cell-based
Experimental: 293T-17 cells were seeded at a density of 650,000 cells per well in a 6-well plate and cultured overnight in an incubator at 37°C and 5% CO2. Afterward, the cells were transfected with an expression vector, PCDNA3.1-hETB which contained a human ETB receptor gene, at a plasmid concentration of 2.5 µg per well. The cells were further cultured for 48 hours, and green fluorescence expression was observed under a fluorescence microscope. The cells were then digested with trypsin and counted. The activity of compounds on the human ETB receptor was determined with the IP-One Gq kit from Cisbio Bioassays. The cells were suspended in Stim Buffer provided in the kit and the cell suspension was added to a 96-well detection plate at 7 µL cell suspension (containing 30,000 cells) per well. The polypeptides to be screened for activity (prepared according to the Preparation Example of the invention) and polypeptide IRL1620 as positive control were dissolved in Stim B to be at a concentration of 2×, and 7 µL was added to the test cells, while 7 µL of PBS solution was added to the cells in the negative control wells. IRL1620 was used as the positive control polypeptide. The plate was sealed and incubated at 37°C for 1 hour in a cell culture incubator. Test wells, positive control wells, and PBS control wells were each added with 3 µL of IP1 d2 working solution and 3 µL of IP1 Tb cryptotate Antibody working solution. The plate was then sealed and incubated in the dark at room temperature (25°C±5°C) for 1 hour. The plate seal was removed, and the […] at 665 nm and 620 nm was measured with an ID5 microplate reader. The ratio of the acceptor emission signal to the donor emission signal, i.e., the value of (signal at 665 nm/signal at 620 nm)×10^4, was calculated for each well. With F1 representing the average value of values of signal at 665 nm/signal at 620 nm determined for the test sample at a specific concentration, F2 representing the average value of values of signal at 665 nm/signal at 620 nm determined for the positive control IRL1620 at the same concentration, and T1 representing the average value of values of signal at 665 nm/signal at 620 nm determined for the PBS negative control, the percentage of activity of the test polypeptide sample relative to the positive control sample IRL1620 is equal to (F1-T1)×100/(F2-T1). hETB sequence (NCBI accession number NM_000115.5).

Substance | hETBR agonist activity, percentage of activity relative to IRL1620 | hETBR agonist activity, percentage of activity relative to IRL1620 (@10nM) | hETBR agonist activity, percentage of activity relative to IRL1620 (@1µM) [%@1µM] | hETBR agonist activity, percentage of activity relative to IRL1620 (@10µM) [%@10µM]
Fum-D cyclo(EEAK)YFAHK(-γE-AEEA-AEEA-ODDA)D(2-Abu)IW [BX-104] | -21.93%@100nM | -1299.77%@10nM | – | –
Fum-D cyclo(EEAK)YFAHK(-γE-AEEA-AEEA-ODDA)DIIW [BX-103] | 14.93%@100nM | 45.51%@10nM | – | –
Fum-D cyclo(EEAK)YFAHLDIIW (Fumaroyl-DEEAKYFAHLDIIW; lactam (positions not given here)) [BX-102] | 155.47% | 113.81% | – | –
Fum-DEE(C16)AVYFAHLDIIW ({Fumaroyl-Asp-Glu-E(C16)}-AVYFAHLDIIW; not fully specified; printed as Fum-DEE(C16)AVYFAHLDIIW) [BX14-1] | – | – | 15.80 | 18.63
Fum-DEEAK(-γE-AEEA-AEEA-ODDA)YFAHLDIIW [BX-67] (Fum-DEEAK with lipidated linker N-terminal) | 46.98%@100nM | 2.68%@10nM | – | –
Fum-DEEAK(-γE-AEEA-AEEA-ODDA)YFAHLDIIW [BX-109] (Fum-DEEAK with lipidated linker N-terminal) | 74.1%@100nM | -1095.4%@10nM | – | –
Fum-DEEAK(-γE-AEEA-AEEA-ODDA)YFAHLDVIW (Fum-DEEAK with lipidated linker N-terminal) [BX-110] | 132.61%@100nM | 138.99%@10nM | – | –
Fum-DEEAKYFAHLDIIW (Fumaroyl-DEEAKYFAHLDIIW) [BX-105] | 253.05%@100nM | 64.66%@10nM | – | –
Fum-DEEAKYFAHLDVIW (Fumaroyl-DEEAKYFAHLDVIW) [BX-106] | 117.63%@100nM | 117.57%@10nM | – | –
Fum-DEEAVYFAHKDVIW (Fumaroyl-DEEAVYFAHKDVIW) [BX-23] | 89.28%@100nM | 26.12%@10nM | – | –
Fum-DEEAVYFAHLDVIW (Fumaroyl-DEEAVYFAHLDVIW) [FBX-7] | 99.81%@100nM | 91.89%@10nM | – | –
Fum-DEEAVYFAHOrn(-AEEA-AEEA-γE-ODDA)DIIW [BX-51] | 37.60%@100nM | 47.83%@10nM | – | –
Fum-DEEE(Biotin)VYFAHKDIIW [BX-16] | 22.24%@1µM and 14.10%@10µM | – | – | –
Fum-DEEEVYFAHK(-AEEA-AEEA-γE - ODDA)DIIW (Fumaroyl-DEEEVYFAHK([AEEA-AEEA-γGlu-C18 diacid])DIIW) [BX-60] | 4.84%@100nM | -15.72%@10nM | – | –
MeO-Fum-D cyclo(EEAK)YFAHLD(2-Abu)IW [BX-65] | 99.24%@100nM | 59.02%@10nM | – | –
SA-DEEAVYFAHLDIIW ({Hexadienoyl(2E,4E)}-DEEAVYFAHLDIIW) [BX-111] | 64.98%@100nM | -11.84%@10nM | – | –
Suc-DEEAVYFAHLDI(N-Me)IW (Suc-DEEAVYFAHLDI[NMeI]W) [BX-25] | 28.86%@100nM | 19.19%@10nM | – | –
Suc-DEEAVYFAHOrn(-AEEA-AEEA-γE - ODDA)DIIW [BX-61] | 40.94%@100nM | 13.97%@10nM | – | –

Results, then the substance that gave them:

hETBR agonist activity, percentage of activity relative to IRL1620 | hETBR agonist activity, percentage of activity relative to IRL1620 (@10nM) | hETBR agonist activity, percentage of activity relative to IRL1620 (@1µM) [%@1µM] | hETBR agonist activity, percentage of activity relative to IRL1620 (@10µM) [%@10µM] | Substance
100.37%@100nM | 50.48%@10nM | – | – | Fum-DEEAKYFAHK(-γE-AEEA-AEEA-ODDA)DIIW (Fumaroyl-DEEAKYFAHK([γGlu-AEEA-AEEA-C18 diacid])DIIW) [BX-107]
9.56%@100nM | -1185.11%@10nM | – | – | Fum-DEEAKYFAHK(-γE-AEEA-AEEA-ODDA)DVIW (Fumaroyl-DEEAKYFAHK([γGlu-AEEA-AEEA-C18 diacid])DVIW) [BX-108]
30.96% | – | – | – | Fum-DEEAVYFAHK(-γE-AEEA-AEEA-ODDA)DVIW (Fumaroyl-DEEAVYFAHK([γGlu-AEEA-AEEA-C18 diacid])DVIW) [BX-101]
6.51%@100nM | 15.61%@10nM | – | – | Fum-DEEAVYFAHL(N-Me)DI(N-Me)IW (Fumaroyl-DEEAVYFAH[NMeL]; not fully specified (C-terminus)) [BX-29]
-10.73%@100nM | 8.27%@10nM | – | – | Fum-DEEAVYFAHL(N-Me)DIIW (Fumaroyl-DEEAVYFAH[NMeL]; not fully specified (C-terminus)) [BX-28]
-18.64%@100nM | -39.42%@10nM | – | – | Fum-DEEAVYFK(-γE-AEEA-AEEA-ODDA)HLDIIW (Fumaroyl-DEEAVYFK([γGlu-AEEA-AEEA-C18 diacid])-{H2N-Leu-Asp-Ile-Ile-Trp}) [BX-68]
-10.59%@100nM | 14.68%@10nM | – | – | MeO-Fum-DEEAVYFAHK(-γE-AEEA-AEEA-ODDA)DIIW ({MeO‑Fum}-DEEAVYFAHK([γGlu-AEEA-AEEA-C18 diacid])DIIW) [BX-75]
0.42%@100nM | 1.72%@10nM | – | – | Suc-DEEAVYFAHL(N-Me)DI(N-Me)IW (Suc-DEEAVYFAH[NMeL]; not fully specified (C-terminus)) [BX-27]
30.58%@100nM | 11.94%@10nM | – | – | Suc-DEEAVYFAHL(N-Me)DIIW (Suc-DEEAVYFAH[NMeL]; not fully specified (C-terminus)) [BX-26]

Reference: patent EP4702986A1, “POLYPEPTIDE AND USE THEREOF” (Biocells (Beijing) Biotech Co., Ltd., priority 2023, dated 2024)
